Assay results taken from patent publication US7557181B2, “Pan-HER antagonists and methods of use” (Molecular Logix, Inc., priority 2005, dated 2009).

How the values were obtained:
Assay type in all cases: cell-based
[1] = tested on: MCF-7 cells (human breast cancer cell line that express HER2 and HER3); experiment: MCF-7 cell proliferation stimulation assay (WST-1); conditions: serum-free, 72 hours, FIG. 4
Method: MCF-7 cells were obtained from the American Type Culture Collection (ATCC). Stock cultures of MCF-7 were maintained in Eagle's MEM supplemented with 1% ITS-X (Invitrogen) and 10% fetal bovine serum. For proliferation assays, MCF-7 cells were transferred to serum-free medium (SFM) for 24 hours and then trypsinized and suspended at 1E5 cells/mL in SFM. Fifty microliters of cell suspension (5000 cells) were plated per well in 96 well microtiter plates. Serial dilutions of HER ligands or mutant proteins were prepared at twice the final concentration in SFM and 50 ul was added to wells, bringing the final volume to 100 ul at the desired final concentration. Plates were incubated for 72 hours at 37 C in a humidified 5% CO2 atmosphere. Cell proliferation was determined by addition of 10 ul/well of WST-1 Cell Proliferation Reagent (Roche Applied Sciences, Indianapolis, Ind.) for the last three hours of the proliferation period.

[2] = tested on: HER5 cells (mouse fibroblast cells that overexpress human EGFR); experiment: HER5 cell proliferation stimulation assay (WST-1); conditions: serum-free, 48 hour proliferation period, FIG. 3
Method: Hung (MD Anderson Cancer Center). Stock cultures of HER5 were propagated in D-MEM/F12 medium containing 10% fetal bovine serum, 100 units/ml of penicillin and 100 ug/ml of streptomycin in a water-jacketed incubator at 37° C. in a humidified 5% CO2 atmosphere. For HER5 proliferation assays, the cells were changed into DMEM/F12 without serum for 24 hours. Cells were then trypsinized and suspended at 1E5 cells/ml. […] Fifty microliters of cell suspension (5000 cells) were added to appropriate wells bringing the total volume to 100 ul at the desired concentrations. Plates were incubated for a 48 hour proliferation period. Cell proliferation was determined by addition of 10 ul/well of WST-1 Cell Proliferation Reagent (Roche Applied Sciences, Indianapolis, Ind.) for the last three hours of the proliferation period. WST-1 is a tetrazolium salt that is cleaved to formazan dye by mitochondrial dehydrogenases in viable cells. The amount of formazan was measured at 450 nm using a microplate reader (Dynex Technologies) with MRX Revelation software.

[3] = target: T1, EGFR (Homo sapiens, UniProt P00533); experiment: Autophosphorylation of EGFR in A431 cells; conditions: epithelial cancer cell line, FIG. 2
T1 construct: Autophosphorylation of EGFR in A431 cells, an epithelial cancer cell line; endogenous in cells; host or cells: A431 cells

Molecule	stimulation of MCF-7 cells (proliferation) [1]	stimulation of HER5 cells (proliferation) [2]	stimulation of autophosphorylation of EGFR [3]
heregulin (protein) SHLVKCAEKEKTFCVNGGECFMVKDLSNPSRYLCKCPNEFTGDRCQNYVMASFYKHLGIEFMEAEELY	can be stimulated	–	–
BiRegulin: chimeric EGF homolog, amino terminal residues (NSDSE) of EGF replaced with corresponding residues of HRGβ1 (SHLVK) (protein) HHHHHHIEGRSHLVKCPLSHDGYCLHDGVCMYIEALDKYACNCVVGYIGERCQYRDLKWWELR	can be stimulated	can be stimulated	stimulated
BiRV35EG39L: BiRegulin with glycine 39 replaced by leucine and valine 35 replaced with glutamate (protein) HHHHHHIEGRSHLVKCPLSHDGYCLHDGVCMYIEALDKYACNCVEGYILERCQYRDLKWWELR	Neither cell line is stimulated	Neither cell line is stimulated	does not stimulate autophosphorylation
